Patent US20260139035A1 (NATIONAL UNIVERSITY CORPORATION KUMAMOTO UNIVERSITY, published 2026)
Where a chain is given by its changes, count along the chain named.

B1: 4-66 antibody (antibody, V domains shown)
VH: EVQLVESGGGLVQPGGSLRLSCAASGIIVSRNYMTWVRQAPGKGLEWVSVIYSGGTTYYADSVKGRFTTSRDDSKNTLYLQMNSLRGDDTAVYYCARDPPHRRGSYWGQGTLVTVSS
VL: DILMTQSPSSLSASVGDRVTITCQASQDINKYLNWYQQKPGKAPKLLIYDASNLETGVPSRFSGSGSGTDFSFTISSLQPEDVATYYCQQSDNLPPTFGQGTNVEIK
B2: 1-58 antibody (antibody, V domains shown)
VH: QVQLVQSGAEVKKPGASVRVSCKASGYSFTASYMHWVRQAPGQGLEWMAIINPGDDNTSYAQKFQGRVTLTRDTSTTTVYMELRSLRSEDTAVYYCTRSTRDYVWGNYRYTPGYYLDYWGQGTLVTVSS
VL: DIRMTQSPSSLSASVGDRVTITCRASQTISNYLNWYQQKPGKAPKLLIYAASSLQSGVPSRFSGSGSGTDFTLTISSLQPEDFATYYCQQGYITPITFGQGTRLEIK
B3: 1-44 antibody (antibody, V domains shown)
VH: EVQLVESGGGVVQPGSSLRLSCAASGFTFRSHAMHWVRQAPGKGLEGVAVIWYDGSNKYYADSVKGRFTISRDNSKNTLYLQMNSLRAEDTAVYYCAREGIAVPGNGADAFDIWGQGTMVTVSS
VL: B2 VL with R3Q, T28S, S30G, Y32F, G91T, I93S, I96Y, R103K

How the values were obtained:
Assay in all cases: cell-based or functional assay
[1] = target: spike protein of SARS-CoV-2 Omicron BA.1.1 (SARS-CoV-2)
[2] = target: spike protein of SARS-CoV-2 Alpha strain (B.1.1.7) (SARS-CoV-2)
[3] = target: spike protein of SARS-CoV-2 Omicron BA.3 (SARS-CoV-2)
[4] = target: spike protein of SARS-CoV-2 Delta strain (B.1.617.2) (SARS-CoV-2)
[5] = target: spike protein of SARS-CoV-2 prototype (614G) (SARS-CoV-2, UniProt P0DTC2 14-1273)
[6] = target: spike protein of SARS-CoV-2 Omicron BA.4/5 (SARS-CoV-2)
[7] = target: spike protein of SARS-CoV-2 Mu strain (B.1.621) (SARS-CoV-2)
[8] = target: spike protein of SARS-CoV-2 Gamma strain (P.1) (SARS-CoV-2)
[9] = target: spike protein of SARS-CoV-2 Omicron BA.1 (SARS-CoV-2)
[10] = target: spike protein of SARS-CoV-2 Beta strain (B.1.351) (SARS-CoV-2)
[11] = target: spike protein of SARS-CoV-2 Kappa strain (B.1.617.1) (SARS-CoV-2)
[12] = target: spike protein of SARS-CoV-2 Omicron BA.2 (SARS-CoV-2)
[13] = target: spike protein of SARS-CoV-2 Omicron BA.2.12.1 (SARS-CoV-2)
[14] = target: spike protein of SARS-CoV-2 Lambda strain (C.37) (SARS-CoV-2)

| Binder | IC50, pseudovirus neutralization [1] | IC50, pseudovirus neutralization [2] | IC50, pseudovirus neutralization [3] | IC50, pseudovirus neutralization [4] | IC50, pseudovirus neutralization [5] | IC50, pseudovirus neutralization [6] | IC50, pseudovirus neutralization [7] | IC50, pseudovirus neutralization [8] | IC50, pseudovirus neutralization [9] | IC50, pseudovirus neutralization [10] | IC50, pseudovirus neutralization [11] | IC50, pseudovirus neutralization [12] | IC50, pseudovirus neutralization [13] | IC50, pseudovirus neutralization [14] |
| --- | --- | --- | --- | --- | --- | --- | --- | --- | --- | --- | --- | --- | --- | --- |
| B1 | < 0.21 µg/mL | < 0.21 µg/mL | < 0.21 µg/mL | < 0.21 µg/mL | < 0.21 µg/mL | < 0.21 µg/mL | < 0.21 µg/mL | < 0.21 µg/mL | < 0.21 µg/mL | < 0.21 µg/mL | < 0.21 µg/mL | < 0.21 µg/mL | < 0.21 µg/mL | < 0.21 µg/mL |
| B2 | < 0.087 µg/mL | < 0.087 µg/mL | < 0.087 µg/mL | < 0.087 µg/mL | < 0.087 µg/mL | < 0.087 µg/mL | < 0.087 µg/mL | < 0.087 µg/mL | < 0.087 µg/mL | < 0.087 µg/mL | < 0.087 µg/mL | < 0.087 µg/mL | < 0.087 µg/mL | < 0.087 µg/mL |
| B3 | < 0.47 µg/mL | < 0.47 µg/mL | < 0.47 µg/mL | – | < 0.47 µg/mL | – | – | < 0.47 µg/mL | < 0.47 µg/mL | < 0.47 µg/mL | < 0.47 µg/mL | < 0.47 µg/mL | < 0.47 µg/mL | < 0.47 µg/mL |
